This note sets out measurements from PMC2681181.

For the assay, the target named is Integrin β1 (human (endogenous in MCF-7 and MCF-10A)) (UniProt P05556). Description: co-IP.
Chain of UniProt P05556 (P05556 21-798): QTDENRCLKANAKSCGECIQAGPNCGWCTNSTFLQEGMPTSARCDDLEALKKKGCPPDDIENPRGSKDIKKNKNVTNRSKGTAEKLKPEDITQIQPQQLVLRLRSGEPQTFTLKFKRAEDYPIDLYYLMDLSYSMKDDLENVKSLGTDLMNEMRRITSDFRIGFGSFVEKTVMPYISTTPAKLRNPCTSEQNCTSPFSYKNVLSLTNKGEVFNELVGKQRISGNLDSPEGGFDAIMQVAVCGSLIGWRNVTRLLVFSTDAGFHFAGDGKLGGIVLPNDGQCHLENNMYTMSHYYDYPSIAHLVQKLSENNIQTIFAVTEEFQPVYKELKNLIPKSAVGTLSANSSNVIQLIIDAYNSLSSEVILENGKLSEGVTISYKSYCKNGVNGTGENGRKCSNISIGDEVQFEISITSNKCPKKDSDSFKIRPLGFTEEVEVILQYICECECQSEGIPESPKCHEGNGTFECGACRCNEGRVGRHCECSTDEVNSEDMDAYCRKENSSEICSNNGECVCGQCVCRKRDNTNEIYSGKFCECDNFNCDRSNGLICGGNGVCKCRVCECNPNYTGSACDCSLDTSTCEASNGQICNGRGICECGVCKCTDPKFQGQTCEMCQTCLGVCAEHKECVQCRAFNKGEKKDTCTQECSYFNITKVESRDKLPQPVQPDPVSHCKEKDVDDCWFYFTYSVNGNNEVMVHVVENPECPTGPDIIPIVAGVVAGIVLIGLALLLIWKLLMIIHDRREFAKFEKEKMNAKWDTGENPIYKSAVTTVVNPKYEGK

On to “Integrin α2 (from UniProt P17301 30-1181) (receptor)”, for which the percent increase of co-precipitated INTα2 after combined CII/LAM treatment was 53.8%.
Take “laminin (from UniProt P02469 22-1786) (complex)”: the percent decrease of co-precipitated LAM in the combined CII/LAM treatment amounted to 27.8%.
“type II collagen (from UniProt P02459 182-1241) (ligand)”: the percent decrease of co-precipitated CII in the combined CII/LAM treatment was found to be 27.1%.
